Test results from patent US20080021198.
Numbering of substitutions follows the chain as printed. Numbers in names are those of the source.

B1: PME S156A mutant (protein)
chain: MSALEKSMHLGRLPSRPPLPGSGGSQSGAKMRMGPGRKRDFSPVPWSQYFESMEDVEVENETGKDTFRVYKSGSEGPVLLLLHGGGHSALSWAVFTAAIISRVQCRIVALDLRSHGETKVKNPEDLSAETMAKDVGNVVEAMYGDLPPPIMLIGHAMGGAIAVHTASSNLVPSLLGLCMIDVVEGTAMDALNSMQNFLRGRPKTFKSLENAIEWSVKSGQIRNLESARVSMVGQVKQCEGITSPEGSKSIVEGIIEEEEEDEEGSESISKRKKEDDMETKKDHPYTWRIELAKTEKYWDGWFRGLSNLFLSCPIPKLLLLAGVDRLDKDLTIGQMQGKFQMQVLPQCGHAVHEDAPDKVAEAVATFLIRHRFAEPIGGFQCVFPGC
B2: PME S156T mutant (protein)
chain: B1 chain with A156T
B3: PME S156C mutant (protein)
chain: B1 chain with A156C
B4: full-length PP2A methyl esterase (PME) (protein)
chain: B1 chain with A156S
B5: trypsin-resistant structural core of PME (protein)
chain 1: RDFSPVPWSQYFESMEDVEVENETGKDTFRVYKSGSEGPVLLLLHGGGHSALSWAVFTAAIISRVQCRIVALDLRSHGETKVKNPEDLSAETMAKDVGNVVEAMYGDLPPPIMLIGHSMGGAIAVHTASSNLVPSLLGLCMIDVVEGTAMDALNSMQNFLRGRPKTFKSLENAIEWSVKSGQIRNLESARVSMVGQVKQCEGITSPEGSK
chain 2: KEDDMETKKDHPYTWRIELAKTEKYWDGWFRGLSNLFLSCPIPKLLLLAGVDRLDKDLTIGQMQGKFQMQVLPQCGHAVHEDAPDKVAEAVATFLIRHRFAEPIGGFQCVFPGC

Target: methylated PP2A A-C hetero-dimer (bovine brain, methylated in vitro with PMT and H^3-SAM), Q32PI5
Sequence (Q32PI5 2-589, chain 1 of 2): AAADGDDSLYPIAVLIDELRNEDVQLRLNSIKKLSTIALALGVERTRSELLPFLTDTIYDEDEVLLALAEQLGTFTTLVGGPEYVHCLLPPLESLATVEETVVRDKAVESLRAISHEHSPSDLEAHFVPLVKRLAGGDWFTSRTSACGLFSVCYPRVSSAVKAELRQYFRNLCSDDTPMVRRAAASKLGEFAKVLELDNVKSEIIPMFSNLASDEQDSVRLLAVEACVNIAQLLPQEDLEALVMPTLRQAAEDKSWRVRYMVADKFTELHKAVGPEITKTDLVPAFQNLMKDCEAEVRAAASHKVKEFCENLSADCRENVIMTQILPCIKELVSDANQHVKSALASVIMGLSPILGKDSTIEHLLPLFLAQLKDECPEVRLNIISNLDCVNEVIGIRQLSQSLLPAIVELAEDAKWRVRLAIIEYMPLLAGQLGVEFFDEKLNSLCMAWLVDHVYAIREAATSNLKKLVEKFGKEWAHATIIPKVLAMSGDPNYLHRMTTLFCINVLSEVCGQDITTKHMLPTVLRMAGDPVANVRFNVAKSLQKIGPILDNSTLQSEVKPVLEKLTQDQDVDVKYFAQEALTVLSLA
Sequence (chain, as listed by the source, chain 2 of 2): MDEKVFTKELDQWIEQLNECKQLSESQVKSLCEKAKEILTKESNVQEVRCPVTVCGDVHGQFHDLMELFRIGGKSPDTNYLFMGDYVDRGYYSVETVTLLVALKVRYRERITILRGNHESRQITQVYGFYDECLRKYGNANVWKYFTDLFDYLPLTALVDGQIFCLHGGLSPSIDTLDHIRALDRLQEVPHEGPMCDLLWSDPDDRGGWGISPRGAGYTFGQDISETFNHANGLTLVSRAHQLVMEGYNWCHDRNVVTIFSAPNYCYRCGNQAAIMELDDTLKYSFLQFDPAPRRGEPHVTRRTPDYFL

Row | Protein | enzyme activity (methyl esterase, release of H^3-methanol) | methyl esterase activity (release of H^3-methanol)
1 | B1 | mutation of Ser156 to alanine completely abolished the enzyme activity | –
2 | B2 | mutation to threonine and cysteine retained 10% and 40% of the enzyme activity, respectively | –
3 | B3 | mutation to threonine and cysteine retained 10% and 40% of the enzyme activity, respectively | –
4 | B4 | – | the PME core exhibits a similar methyl esterase activity to that of the full-length PME
5 | B5 | – | the PME core exhibits a similar methyl esterase activity to that of the full-length PME
